In US20260242478A1 (published 2026):
Where no end group is shown, it is not given here.

B1: Phage-2973 (peptide)
peptide: VSPLCVPSWMCVGF
modifications: cysteine pairing not given here; also: peptide displayed as fusion to phage pIII
notes: Clonal phage of the peptide-180 optimisation library, tested as crude phage supernatant; not shown: bacteriophage pIII coat protein to which the peptide is fused for display
B2: Phage-2975 (peptide)
peptide: GVPMCVPDWMCHGL
modifications: cysteine pairing not given here; also: peptide displayed as fusion to phage pIII
notes: as for B1
B3: Phage-2974 (peptide)
peptide: VGAACIPDWMCVGF
modifications: cysteine pairing not given here; also: peptide displayed as fusion to phage pIII
notes: as for B1
B4: Phage-2983 (peptide)
peptide: PERMCRPLWMCEGF
notes: It was tested as crude clonal phage supernatant; also called Peptide-180 library clone
B5: Phage-2979 (peptide)
peptide: SEIACRPAWMCQWL
notes: as for B4
B6: Phage-2986 (peptide)
peptide: SQPMCIPVWMCRGF
notes: as for B4
B7: Phage-2987 (peptide)
peptide: LLVRCQPEWMCVGF
notes: as for B4
B8: Phage-2988 (peptide)
peptide: FTAYCKPAWMCQGL
notes: as for B4
B9: Phage-2980 (peptide)
peptide: VEHWCRPEWMCAGF
notes: as for B4
B10: Phage-2989 (peptide)
peptide: TVVMCKPSWMCEGF
notes: as for B4
B11: Phage-2978 (peptide)
peptide: FGYACIPNWMCTVF
notes: as for B4
B12: Phage-2985 (peptide)
peptide: EEVYCVPKWMCLGF
notes: as for B4
B13: Phage-2976 (peptide)
peptide: FEMLCKPAWMCSGF
notes: as for B4
B14: Phage-2977 (peptide)
peptide: TELRCVPSWMCTGF
notes: as for B4
B15: Phage-2982 (peptide)
peptide: PMHACIPMWMCAGF
notes: as for B4
B16: Phage-2984 (peptide)
peptide: AGIRCVPEWMCLGF
notes: as for B4
B17: Phage-2981 (peptide)
peptide: DDRMCIPSWMCSGL
notes: as for B4

What follows are binders tested against T1, PSMA Fab (biotinylated (site not stated)) (assay: phage ELISA, captured anti-PSMA Fab pre-incubated with PSMA antigen as competitor, anti-M13 HRP detection).
T1 construct: Biotinylated PSMA Fab captured on neutravidin coated plates in the phage ELISA; also called Anti-PSMA Fab; 006 PSMA Fab

Row | Binder | Phage binding ELISA signal, Anti-PSMA Fab in presence of PSMA antigen
1 | B1 | 0.108
2 | B2 | 0.073
3 | B3 | 0.0732

What follows are binders tested against T2, Anti-PSMA Fab (biotinylated (site not stated)) (assay: phage ELISA; captured anti-PSMA Fab pre-incubated with PSMA antigen as competitor).
T2 construct: The biotinylated PSMA Fab was captured on neutravidin coated plates for the phage ELISA; also called 006 PSMA Fab

Row | Binder | Phage binding ELISA signal, Anti-PSMA Fab with PSMA antigen
4 | B4 | 0.11
5 | B5 | 0.125
6 | B6 | 0.109
7 | B7 | 0.14
8 | B8 | 0.0917
9 | B9 | 0.0893
10 | B10 | 0.083
11 | B11 | 0.122
12 | B12 | 0.0871
13 | B13 | 0.0857
14 | B14 | 0.0676
15 | B15 | 0.114
16 | B16 | 0.0784
17 | B17 | 0.0851

The binders below were run against T2, Anti-PSMA Fab (assay: phage ELISA; biotinylated anti-PSMA Fab on neutravidin plate, anti-M13-HRP detection, no PSMA antigen).
Protocol: (§1) Clonal phage were harvested as crude supernatants and screened via standard ELISAs. […] Prior to the addition of clonal phage. wells were incubated with blocking buffer and PSMA antigen or blocking buffer alone. Without washing or aspirating, clonal phage supernatants were then added to the wells and incubated for a short time. Wells were then washed followed by detection of bound phage using a horse radish conjugated anti-M13 antibody.

Row | Binder | Phage binding ELISA signal, Anti-PSMA Fab
18 | B4 | 2.23
19 | B5 | 2.24
20 | B6 | 2.23
21 | B7 | 2.23
22 | B8 | 2.22
23 | B9 | 2.24
24 | B10 | 2.22
25 | B11 | 2.24
26 | B12 | 2.23
27 | B13 | 2.24
28 | B14 | 2.24
29 | B15 | 2.23
30 | B16 | 2.23
31 | B17 | 2.24

The binders below were run against T1, PSMA Fab (assay: phage ELISA, biotinylated anti-PSMA Fab on neutravidin plate, anti-M13 HRP detection).
Protocol: as §1

Row | Binder | Phage binding ELISA signal, Anti-PSMA Fab
32 | B1 | 2.25
33 | B2 | 2.24
34 | B3 | 2.25
